Source: patent CN104628856A (INST RADIATION MED AMMS PLA; BEIJING C & N INTERNAT SCI …, dated 2015)

Target: T1, B淋巴细胞刺激因子(BLyS)蛋白 (human, UniProt Q9Y275 134-285, biotinylated (生物素化, sites not stated))
T1 construct: The protein was harvested from the culture supernatant, so it may be the soluble form; It was biotinylated for the ForteBio assay; also called BAFF; 抗原BLyS; not shown: His tag from vector p3457-his
Assay: ForteBio (BLI): biotinylated BLyS at 20 μg/ml loaded, B-11ScFv in 2-fold dilutions from 25 to 0.78125 μg/ml in PBS pH 7.4

Kd: 3.08 nM
B1: 抗BLyS单链抗体B-11ScFv (scFv, V domains shown)
VH: EVQLQESGGGLVQPGGSLRLSCAASGFTFSRYWMLWVRQAPGKGLVWVSRINTDGSSTWYADSVKGRFTISRDNAKNTLYLQMNSLRAEDTAVYYCARDQDGVGATHDYWGQGTLVTVSS
notes: Secreted from 293E cells out of plasmid p3457B-11ScFv and purified on a nickel column, about 30 kDa; also called 11号ScFv; 抗人BLyS ScFv抗体; not shown: His tag from vector p3457his (Ni column purification, anti-His blot)
